Test: label from the status in PepcDB records

Sequence	protein production
SDDINQKVAEQLAQKAQSSSLGYDIVESLTVEVGPRLAGSEQDKVAVDWAIAKLQSLGFDRVYKEPVTVPVWRRGIAKASILSPFPQPLVVTALGGSIATPAQGLSATIVRFDTLQDLQNAEAGSLNDKIAFIDAKTERHRDGKGYGQTASGRSRGAVAAAEKGAVGIIIRSIGTDHDRMAHTGMMRYEEGVTAIPAAAISNPDADLINAMLKRDKEVVISLELGSERRGETTSYNVIAEVKGSTKADEIVLIGAHLDSWDEGTGAIDDGAGVAIVTAAAKHILDLPQKPERTIRVVLYAAEELGLLGGKTYAKEHEAELEKHYIAAESDFGAGPIYQIDWRVADTAHSPVINAMKVAEPLGVAAGNNKASGGPDVSMLPALGVPVASLRQDGSDYFDYHHTPNDTLDKINPEALAQNVAVYAQFAWVMANSKVELRPLPPKE	not failed
SDMVAQALELSRKPHVVIATPGRLADHLRSSNTFSIKKIRFLVMDEADRLLEQGCTDFTVDLEAILAAVPARRQTLLFSATLTDTLRELQGLATNQPFFWEAQAPVSTVEQLDQRYLLVPEKVKDAYLVHLIQRFQDEHEDWSIIIFTNTCKTCQILCMMLRKFSFPTVALHSMMKQKERFAALAKFKSSIYRILIATDVASRGADQPPLPPGAWTSLRYRWSSTTTPPGSPRSTSTESAGRPVQGGRVRPSRW	not failed
SDPDADRVGIACKNDKGEWVLINGNQTCLMYLYYIITQYNKLGKMTGNEFCVKTIVTTELIKKIADKNHIEMLDCYTGFKWIAREIRLREGKKKYIGGGEESYGFLAEDFVRDKDAVSACCLIAEVAAWAKDNGKTLYQLLMDIYVEYGFSKE	failed
SDSPEQESADDALKRIVDGFQHFRREVFPEQQALFKKLANSQRPRAMFITCADSRIVPELITQSSPGDLFVTRNVGNVVPPYGQMNGGVSTAIEYAVLALGVHHIIVCGHSDCGAMRAVLDPQTLERMPTVKAWLRHAEVARTVVADNCDCGASHDTLGVLTEENVVAQLDHLRTHPSVASRLASGQLFIHGWVYDIESAQIRAYDAKQGRFLPLDGEHPVPMATPAPRYLSS	failed
SEITVSEFLLDFLNKYSENISLATYNNYVSICKNYINPSIGKYKIQDLHPVHIQNYIDKLSYKLNPQSIKIHINILKLAIKRAYRLKLIKENVMDSIKAP	failed
SEKLAASTEPQGPRPVLGRESVQVPDDQDFRSFRSECEAEVGWNLTYSRAGVSVWVQAVEMDRTLHKIKCRMECCDVPAETLYDVLHDIEYRKKWDSNVIETFDIARLTVNADVGYYSWRCPKPLKNRDVITLRSWLPMGADYIIMNYSVKHPKYPPRKDLVRAVSIQTGYLIQSTGPKSCVITYLAQVDPKGSLPKWVVNKSSQFLAPKAMKKMYKACLKYPEWKQKHLPHFKPWLHPEQSPLPSLALSELSVQHADSLENIDESAVAESREERMGGAGGEGSDDDTSLT	not failed
SELKPTAPPIFTGRPFVVAWDVPTQDCGPRLKVPLDLNAFDVQASPNEGFVNQNITIFYRDRLGLYPRFDSAGRSVHGGVPQNVSLWAHRKMLQKRVEHYIRTQESAGLAVIDWEDWRPVWVRNWQDKDVYRRLSRQLVASRHPDWPPDRIVKQAQYEFEFAAQQFMLETLRYVKAVRPRHLWGFYLFPDCYNHDYVQNWESYTGRCPDVEVARNDQLAWLWAESTALFPSVYLDETLASSRHGRNFVSFRVQEALRVARTHHANHALPVYVFTRPTYSRRLTGLSEMDLISTIGESAALGAAGVILWGDAGYTTSTETCQYLKDYLTRLLVPYVVNVSWATQYCSRAQCHGHGRCVRRNPSASTFLHLSTNSFRLVPGHAPGEPQLRPVGELSWADIDHLQTHFRCQCYLGWSGEQCQWDHRQAAGGASEAWAGSHLTSLLALAALAFTWTL	failed
SERYAAALEEVADGARQQERHYQLLSALQSLVKELPSSFQQRLSYTTLSDLALALLDGTVFEIVQGLLEIQHLTEKSLYNQRLRLQNEHRVLRQALRQKHQEAQQACRPHNLPVVQAAQQRELEAVEHRIREEQRAMDQKIILELDRKVADQQSTLEKAGVAGFYVTTNPQELMLQMNLLELIRKLQQRGCRAGNAALGLGGPWQSPAAQCDQKGSPVPP	not failed
SEYKFAKFAATYFQGTTTHSYTRRPLKQPLLYHDDEGDQLAALAVWITILRFMGDLPEPKYHTAMSDGSEKIPVMTKIYETLGKKTYKRELQALQGEGEAQLPEGQKKSSVR	failed
SFRVVLDPGHGGIDGGARGVTGILEKDVTLAFARALRDELQKGSHTIVALTRDSDIFLRLSERVKKAQEFDADLFISIHADTIDVHSLRGATVYTISDEASDAIAKSLAESENKVDLLDGLPKEESLELTDILLDLTRRETHAFSINFANNVVSNLSKSHINLINNPHRYADFQVLKAPDVPSVLIEIGYLSNKEDEKLLNNPQWRKQMAASIAYSIRQFAEYRQKIMQPL	not failed
SGLAQPQIAAVVAAPKKPEPAKAPKAPKSKSEKENKPVVAARKANAPVAKNASPVKGGKGPAGGDVGRPKNPTANGANNQGRFNNNQRYGNKESNGEFGNELPQRQFNNRDNRGPPRVRTGEKFG	failed
SIAILVIMHGESTASSMVNVANTLLDCNHAVAINMGLEDRVQDILVQAVEIANKIDKGKGILILTDMGSILTFAKVIRDATGKEVKAIDMVSTPIVIEATRKALTPEMTLEKLYFNIIESIKKHYGDMEVTYAEK	failed
SIAILVIMHGESTASSMVNVANTLLDCNHAVAINMGLEDRVQDILVQAVEIANKIDKGKGILILTDMGSILTFAKVIRDATGKEVKAIDMVSTPIVIEATRKALTPEMTLEKLYFNIIESIKKHYGDMEVTYAEKDNGGRY	not failed
SIDSKLQTLGEQLMQGKRGAIVMIEPETGEVLCLVSSPSYDPSLLAGKDRGKNHLEMEHDRNKPLYARAIQATYPPGSTFKPAQGAIFLQEGVIRPTDAFSCYHGFPPLNNRPACHSHGSPLSLVPALATSCNAFFCWGLRAMLDNRRFYPSVQEAFEHWKNRIVGLGFGYRLGLDLPGERRGYIPNSKVYDKAYKGRWNSSTIISISIGQGEILATPLQIANLGVIIANRGRYRRPHVVKAIQGIPLDTAYTNWQNSGISPANMEYIVEGMARAVTGGTCHAANFAPGEIEVCGKTGTAENPHGKDHSAFLGFAPRNNPKVVVSVYVENGGFGAVYGVPIGRVMMEYYLREGKLSPEGEAVATKMSNTAIHYSNVF	failed
SISTHESQKLREYYRLLNLDEGCSVDDVRESFHKLARQYHPDSGSSDADSATFIKIEEAYRNVLSHAIKRMHAGQDKAEDAAEDEEEGKFKYNTPQHRHYLSFEGVGFGTPSQREKQYRQFRADRATEQVMEYQRQKLQREFFANSITVKDVRQSKQQKITQAIERLVEDLIQESMAKGDFDNLSGKGKPLKKFSGCSYIDPMTHNLNRILIDNGYQPEWILMQKEIKDTIEQLREALLMSRKKLGNPLSPTEQKQWAQVCEQFQEKIRKLNKRINDFNLIVPILTRQKVHFDAQKEIIRVQEMYGAFVEANEVTEENQTDVSQGEESKTPRVKAGFLNWLNLWKSIKI	failed
SKIYDNKNQLIADLGSERRVNAQANDIPTDLVKAIVSIEDHRFFDHRGIDTIRILGAFLRNLQSNSLQGGSTLTQQLIKLTYFSTSTSDQTISRKAQEAWLAIQLEQKATKQEILTYYINKVYMSNGNYGMQTAAQNYYGKDLNNLSLPQLALLAGMPQAPNQYDPYSHP	failed
SKKPYIVTIACTKGGSAKSTNAANIGAFCADHGLRTLLIDTDTQPTLSSYYSLAKTAPGGIYEFLLQRDVEPSHIVSQTSIKNLDLIQSNDPSNNVSHMLRNAPDGSIRFSHLIKSINNYDVIVIDTRGTRDITVDMSVLAADILFCPILPQILSAKEFIRGTIGMYQDLQTFESFGFKLPPLKAIANGVDNTNDVKFVMQKLHTLFANTFDES	failed
SKLNERSVAHYALSDSPADHMGFLRTWGGPGTPPTPSGTGRRCWFVLKGNLLFSFESREGRAPLSLVVLEGCTVELAEAPVPEEFAFAICFDAPGVRPHLLAAEGPAAQEAWVKVLSRASFGYMRLVVRELESQLQDARQSLALQRRSSWKSVASRCKPQAPNHRAAGLENGHCLSKDSSPVGLVEEAGSRSAGWGLAEWELQGPASLLLGKGQSPVSPETSCFSTLHDWYGQEIVELRQCWQKRAQGSHSKCEEQDRP	not failed
SKYQLGMLHFSTQYDLLHNHLTVRVIEARDLPPPISHDGSRQDMAHSNPYVKICLLPDQKNSKQTGVKRKTQKPVFEERYTFEIPFLEAQRRTLLLTVVDFDKFSRHCVIGKVSVPLCEVDLVKGGHWWKALIP	not failed
